In publication PMC7156819:

Biological target: FOXM1 (Forkhead box M1) (UniProt Q08050)
Assay: GST pull-down with purified proteins
Conditions: reference: GST-ZNF148 WT without ERK; sites S306

binding against the reference: stronger
Substance: ZNF148 (ZBP‐89) (from UniProt Q9UQR1) GST-ZNF148 WT pre-incubated with active ERK
